Experimental data from patent US20170137855A1, “RECOMBINANT CELLS AND METHODS FOR NONPHOSPHORYLATIVE METABOLISM” (REGENTS OF THE UNIVERSITY OF MINNESOTA, priority 2015, published 2017).

Columns and labels:
[1] = substrate: O=C(O)[C@H](O)[C@@H](O)[C@H](O)CO; experiment: B. xenovorans D-xylonate dehydratase, semicarbazide method; format: biochemical, Burkholderia xenovorans LB400; details: other: 100 nM enzyme, 100 mM Tris-HCl, 5 mM MgSO4, pH 7.5
Text: (§1) Finally, the 2-ketoacids produced were quantified by detecting their semicarbazone absorbance at 250 nm.

[2] = substrate: O=C(O)[C@H](O)[C@@H](O)[C@H](O)CO; experiment: C. crescentus D-xylonate dehydratase, semicarbazide method; format: biochemical, Caulobacter crescentus; details: other: 100 nM enzyme, 100 mM Tris-HCl, 5 mM MgSO4, pH 7.5
Text: as §1

[3] = substrate: O=C(O)[C@H](O)[C@@H](O)[C@@H](O)CO; experiment: L-arabonate dehydratase, semicarbazide method; format: biochemical, Burkholderia multivorans; details: other: 100 nM enzyme, 100 mM Tris-HCl, 5 mM MgSO4, pH 7.5
Text: as §1

[4] = substrate: O=C(O)C(=O)C[C@@H](O)CO; experiment: 2-keto-3-deoxy-L-arabonate dehydratase, coupled assay with KGSADH; format: biochemical, Burkholderia multivorans; details: other: coupled assay, substrate from 0-20 mM L-arabonate, 1 mM NAD+, pH 7.5, 25° C.
Protocol: (§2) 2-Keto-3-deoxy-D-xylonate dehydratase (XylX/DR64-8450), 2-keto-3-deoxy-L-arabonate dehydratase (AraD) and 5-keto-4-deoxy-D-glucarate dehydratase (YcbC): Enzyme activities of XylX, DR64-8450, AraD and YcbC were assayed spectrophotometrically in a coupled assay with the corresponding previous dehydratase and 2-ketoglutaric semialdehyde dehydrogenase (KGSADH) as previously described (Watanabe et al., 2006. J Biol. Chem. 281:33521-33536). […] The reaction was initiated by adding an appropriate amount of 2-keto-3-deoxy-D-xylonate dehydratase (XylX/DR64-8450)/2-keto-3-deoxy-L-arabonate dehydratase (AraD)/5-keto-4-deoxy-D-glucarate dehydratase (YcbC), and the increasing absorbance at 340 nm caused by NADH produced in the reaction was monitored.

[5] = substrate: O=C(O)C(=O)C[C@H](O)CO; experiment: B. xenovorans 2-keto-3-deoxy-D-xylonate dehydratase, coupled assay with KGSADH; format: biochemical, Burkholderia xenovorans LB400; details: other: coupled assay, substrate from 0-20 mM D-xylonate, 1 mM NAD+, pH 7.5, 25° C.
Protocol: as §2

[6] = substrate: O=C(O)[C@H]1OC(O)[C@H](O)[C@@H](O)[C@H]1O; experiment: purified protein, by the assay type; details: other: D-galacturonate 0 to 10 mM, 1 mM NAD+, pH 7.5, 30° C., 30.0 °C
[7] = substrate: O=C(O)C(=O)C[C@H](O)CO; experiment: C. crescentus 2-keto-3-deoxy-D-xylonate dehydratase, coupled assay with KGSADH; format: biochemical, Caulobacter crescentus; details: other: coupled assay, substrate from 0-20 mM D-xylonate, 1 mM NAD+, pH 7.5, 25° C.
Protocol: as §2

[8] = substrate: O=C(O)[C@@H](O)[C@H](O)[C@H](O)[C@@H](O)C(=O)O; experiment: purified protein, by the assay type; details: other: 100 nM enzyme, 100 mM Tris-HCl, 5 mM MgSO4, pH 7.5
[9] = substrate: OC1OC[C@H](O)[C@H](O)[C@H]1O; experiment: L-arabinose dehydrogenase, NADH generation at 340 nm; format: biochemical, Burkholderia multivorans; details: other: L-arabinose 0 to 10 mM, 1 mM NAD+, pH 7.5, 30° C.
Protocol: A series of enzymatic assays were conducted to estimate the initial activity as a function of starting substrate concentration. […] Kinetic constants (kcat/Km) for following enzymes were calculated with the same method.

B1: Burkholderia xenovorans LB400 D-xylonate dehydratase (DR64_8449) (Paraburkholderia xenovorans LB400) (protein)
chain: MSASTPRRLRSQEWFDDPSHADMTALYVERFMNYGLTREELQSGRPIIGIAQTGSDLAPCNRHHIELAARTKAGIRDAGGIPMEFPVHPLAEQSRRPTAALDRNLAYLGLVEILHGFPLDGVVLTTGCDKTTPACLMAAATVDMPAIVLSGGPMLDGWHEGKRVGSGTVIWHARNLLATGEIDYEGFMQLTTASSPSIGHCNTMGTALSMNSLAEALGMSLPGCASIPAAYRERGQMAYATGKRIVDLVREDVRPSHIMTKAAFENAIVVASALGASTNCPPHLIAIARHMGVELTLDDWQRVGEQVPLIVNCMPAGEYLGESFHRAGGVPAVLRELVHAQLVHRECLTVSGRTIGEIAADAPSPDRDVIRTTEDPLKHGAGFIVLSGNFFDSAIMKMSVVGEAFRQTYLSEPGNENTFEARAIVFDGPEDYHARINDPSLDIDQHCILVIRGAGTVGYPGSAEVVNMAPPAELVRQGITSLPTLGDGRQSGTSASPSILNMSPEAAVGGGLSLLRTNDRIRVDLNSRSVNVLVDDEELARRRETATFAIPPTQTPWQELYRQTVGQLSTGGCLEPATLYLKVIAERGNPRHSH
notes: gene from LB400 genomic DNA
Km [1]: 1520 ± 80 µM | kcat [1]: 1.73 ± 0.3 s⁻¹ | kcat/Km [1]: 1140 M⁻¹ s⁻¹

B2: Caulobacter crescentus D-xylonate dehydratase (XylD) (Caulobacter vibrioides CB15) (protein)
chain: MRSALSNRTPRRFRSRDWFDNPDHIDMTALYLERFMNYGITPEELRSGKPIIGIAQTGSDISPCNRIHLDLVQRVRDGIRDAGGIPMEFPVHPIFENCRRPTAALDRNLSYLGLVETLHGYPIDAVVLTTGCDKTTPAGIMAATTVNIPAIVLSGGPMLDGWHENELVGSGTVIWRSRRKLAAGEITEEEFIDRAASSAPSAGHCNTMGTASTMNAVAEALGLSLTGCAAIPAPYRERGQMAYKTGQRIVDLAYDDVKPLDILTKQAFENAIALVAAAGGSTNAQPHIVAMARHAGVEITADDWRAAYDIPLIVNMQPAGKYLGERFHRAGGAPAVLWELLQQGRLHGDVLTVTGKTMSENLQGRETSDREVIFPYHEPLAEKAGFLVLKGNLFDFAIMKSSVIGEEFRKRYLSQPGQEGVFEARAIVFDGSDDYHKRINDPALEIDERCILVIRGAGPIGWPGSAEVVNMQPPDHLLKKGIMSLPTLGDGRQSGTADSPSILNASPESAIGGGLSWLRTGDTIRIDLNTGRCDALVDEATIAARKQDGIPAVPATMTPWQEIYRAHASQLDTGGVLEFAVKYQDLAAKLPRHNH
notes: His; made in house; host or cells: E. coli BL21
Km [2]: 1180 ± 50 µM | kcat [2]: 7.6 ± 1.1 s⁻¹ | kcat/Km [2]: 6400 M⁻¹ s⁻¹

B3: Burkholderia multivorans L-arabonate dehydratase (AraC, BmulJ 5323) (Burkholderia multivorans ATCC 17616) (protein)
chain: MSATKPRLRSAQWFGTNDKNGFMYRSWMKNQGIPDHEFDGRPIIGICNTWSELTPCNAHFRKLAEHVKRGIFEAGGFPVEFPVFSNGESNLRPSAMLTRNLASMDVEEAIRGNPIDAVVLLAGCDKTTPALLMGAASCDVPAIVVSGGPMLNGKLEGKNIGSGTAVWQLHEALKAGEIDLHHFLSAEAGMSRSAGTCNTMGTASTMACMAEALGVALPHNAAIPAVDSRRYVLAHMSGIRIVEMALEGLVLSKVLTRAAFENAIRVNAAIGGSTNAVIHLKAIAGRIGVPLELEDWMRIGRDTPTIVDLMPSGRFLMEEFYYAGGLPAVLRRLGEGGLLPHPDALTVNGKTLWDNVREAPNYDDEVIRPLDRPLIADGGIRILRGNLAPRGAVLKPSAASPELLKHRGRAVVFENFDHYKATINDESLDVDANSVLVLKNCGPRGYPGMAEVGNMGLPPKLLRQGVKDMVRISDARMSGTAYGTVVLHVAPEAAAGGPLAAVRNGDWIELDCEAGTLHLDIPDDELQRRLSDVDPAAAPGVAGQAGKGGYARLYLDHVLQADEGCDLDFLVGTRGAEVPSHSH
notes: gene from B. multivorans genomic DNA
kcat [3]: 0.17 s⁻¹

B4: Burkholderia multivorans 2-keto-3-deoxy-L-arabonate dehydratase (AraD, BmulJ 5321) (Burkholderia multivorans ATCC 17616) (protein)
chain: MTSSRTPRYRGIFPVVPTTFTETGELDLASQKRAVDFMIDAGSDGLCILANFSEQFALADDERDVLTRTILEHVAGRVPVIVTTSHYSTQTCIARSVRAQQLGAAMVMVMPPYHGATFRVPEAQIHAFYARLSDALSIPIMIQDAPASGTVLSAPFLAQLAREIEHVAYFKIETPGAATKLRELIRLGGDAIEGPWDGEEAITLLADLHAGATGAMTGGAYPDGIRPILEAHREGRHDDAFARYQTWLPLINHENRQSGILTAKALMREGGVIACEAPRHPMPTLHPDTRAELIAIARRLDPLVLRWAR
notes: coupled with AraC and KGSADH
Km [4]: 9700 µM | kcat [4]: 0.23 s⁻¹

B5: Burkholderia xenovorans LB400 2-keto-3-deoxy-D-xylonate dehydratase (DR64_8450) (Paraburkholderia xenovorans LB400) (protein)
chain: MSATSPSSFLPDDLGQALLVGRVWRKTDQHEGPSVVVVRGGEVFDITATVPTTADLFDREDAAPLARTAPGVSLGAVAQLIASNLPGAAAPALRLLAPCDVQAIKACGVTFAVSLIERVIEEQAAGDPAKAKEVRDTIASMIGTDLSKIEPGSDAAMKLKAELERRGAWSQYMEVGIGPDAEVFSKSQPMSAVGFGADVGLLAASTWNNPEPEIVLAVNSRGEIVGATLGNDVNLRDIEGRSALLLGKCKDNNGSCAIGPFVRLFDESFSLDSVRTASVALRVEGADDGFVLEGVSHMSEISRDPANLVAQTWGRHHQYPDGFMLFLGTMFSPIKDRDAPGAGFTHHLGDLVTISTPQLGALTNTVRLSTEIEPWTFGVRALYRNLAARGLLASA
notes: coupled with D-xylonate dehydratase and KGSADH
Km [5]: 8960 ± 200 µM | kcat [5]: 4.72 ± 0.5 s⁻¹ | kcat/Km [5]: 530 M⁻¹ s⁻¹

B6: Pseudomonas putida KT2440 uronate dehydrogenase (Udh) (Pseudomonas putida KT2440) (protein)
chain: MTTTPFNRLLLTGAAGGLGKVLRERLKGYAEVLRLSDISPMAPAAGPHEEVITCDLADKAAVHTLVEGVDAIIHFGGVSTEHAFEEILGPNICGVFHVYEAARKHGVKRIIFASSNHTIGFYRQDERIDAHAPRRPDSYYGLSKCYGEDVASFYFDRYGIETVSIRIGSSFPQPQNLRMLCTWLSYDDLVQLIERGLFTPGVGHTIVYGASDNRTVWWDNRHAAHLGYVPKDSSETFRAAVEAQPAPAADDPSMVYQGGAFAVAGPFN
Km [6]: 150 µM | kcat [6]: 24.1 s⁻¹

B7: Caulobacter crescentus 2-keto-3-deoxy-D-xylonate dehydratase (XylX) (Caulobacter vibrioides NA1000) (protein)
chain: MGVSEFLPEDWKAATLLGRIDFGEGPTPVLVRGGRVEDVSKIAPTVADLMNAFQPGAVIPRGEDKGPLEALDIRPVWEDPDGAAPVKLLAPVDLQCLKAAGVTFAVSTLERVIEERARGDAGEALKIRTLLAERMGGDLKSVEPGSQGAQRLKDALIADGLWSQYLEVAIGPDAEIFTKGPTLSSMGWGDQVGVRYDSHWNNPEPEVVLLCDGSGLIRGAALGNDVNLRDFEGRSALLLSKAKDNNASCAIGPFFRLFDETFGLDDVRSAEVELKITGRDNFVLDGKSNMSLISRDPAVLAGQAYGKQHQYPDGFALFLGTMFAPIQDRDTPGQGFTHKVGDRVRVSTPKLGVLENEVTTCDKAKPWTFGISALIRNLAGRGLL
notes: coupled with XylD and KGSADH; BlpI site removed in gene
Km [7]: 1900 ± 80 µM | kcat [7]: 0.53 ± 0.1 s⁻¹ | kcat/Km [7]: 260 M⁻¹ s⁻¹

B8: E. coli D-galactarate dehydratase (GarD) (Escherichia coli K-12) (protein)
chain: MANIEIRQETPTAFYIKVHDTDNVAIIVNDNGLKAGTRFPDGLELIEHIPQGHKVALLDIPANGEIIRYGEVIGYAVRAIPRGSWIDESMVVLPEAPPLHTLPLATKVPEPLPPLEGYTFEGYRNADGSVGTKNLLGITTSVHCVAGVVDYVVKIIERDLLPKYPNVDGVVGLNHLYGCGVAINAPAAVVPIRTIHNISLNPNFGGEVMVIGLGCEKLQPERLLTGTDDVQAIPVESASIVSLQDEKHVGFQSMVEDILQIAERHLQKLNQRQRETCPASELVVGMQCGGSDAFSGVTANPAVGYASDLLVRCGATVMFSEVTEVRDAIHLLTPRAVNEEVGKRLLEEMEWYDNYLNMGKTDRSANPSPGNKKGGLANVVEKALGSIAKSGKSAIVEVLSPGQRPTKRGLIYAATPASDFVCGTQQVASGITVQVFTTGRGTPYGLMAVPVIKMATRTELANRWFDLMDINAGTIATGEETIEEVGWKLFHFILDVASGKKKTFSDQWGLHNQLAVFNPAPVT
Km [8]: 760 µM | kcat [8]: 18.9 s⁻¹

B9: Burkholderia multivorans L-arabinose dehydrogenase (AraA, BmulJ 5320) (Burkholderia multivorans ATCC 17616) (protein)
chain: MSQVVSLGVVGIGKIARDQHLPAIAAEPGFALTACASRHAEVTGVRNYPDLGALLAGEPELAAVSLCAPPQVRYAQARAALNAGKHVMLEKPPGATLGEVAALEALAQSRGLTLFATWHSRCASAVEPARAWLATREIRAVQVRWKEDVRRWHPGQQWIWEPGGLGVFDPGINALSIVTRILPRELVLREATLVVPSDTQTPIAAELECADTDGVPVHAEFDWRHGPVEQWEIAVDTADGVLAISAGGAKLSIAGEPVEVGPAREYPALYAQFHALIARRESDVDVRPLRLVADAFLFGRRVDTEAFGR
notes: as for B3
kcat [9]: 101.4 s⁻¹
